# From publication PMC5727390, “Targeted inhibition of STAT/TET1 axis as a therapeutic strategy for acute myeloid leukemia”
# Target: STAT3 (UniProt P40763 127-722)
# Experiment: EMSA; no compound; Signosis EMSA Assay Kit, manufacturer's protocol with minor modifications; buffer, salt, pH and temperature not stated
# Settings: chain copies: 2; label: 5' biotin on both strands; blunt
# STAT3, sequence (P40763 127-722): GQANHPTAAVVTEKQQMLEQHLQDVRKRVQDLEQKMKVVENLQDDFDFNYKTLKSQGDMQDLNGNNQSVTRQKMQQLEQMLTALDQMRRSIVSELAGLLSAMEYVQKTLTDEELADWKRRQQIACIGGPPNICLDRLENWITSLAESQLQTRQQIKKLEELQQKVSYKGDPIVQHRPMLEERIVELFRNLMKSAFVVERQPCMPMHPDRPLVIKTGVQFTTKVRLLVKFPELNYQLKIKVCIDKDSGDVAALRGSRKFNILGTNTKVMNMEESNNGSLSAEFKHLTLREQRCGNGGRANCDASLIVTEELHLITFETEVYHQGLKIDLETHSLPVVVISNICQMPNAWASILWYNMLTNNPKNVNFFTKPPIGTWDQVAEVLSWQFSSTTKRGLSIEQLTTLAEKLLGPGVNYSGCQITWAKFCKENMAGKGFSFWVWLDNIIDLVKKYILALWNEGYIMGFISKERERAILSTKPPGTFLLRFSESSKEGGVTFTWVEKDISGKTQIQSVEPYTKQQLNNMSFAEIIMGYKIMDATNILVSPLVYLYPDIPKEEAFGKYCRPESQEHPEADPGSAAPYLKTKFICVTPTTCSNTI
binder,measurement,value
TET1-CPG probe (dsDNA) DNA 1: CCGGTAGGCGTCCTCCGCGACCCGC DNA 2: GCGGGTCGCGGAGGACGCCTACCGG,binding result,binds
